The target of assay [1] is recombinant human IgE (trastuzumab-IgE; anti-Her2-IgE) (human). Kind of assay: SPR; Biacore X100, HBS-EP+ running buffer; Her2 amine-coupled on a CM5 chip, trastuzumab-IgE captured via Her2; anti-IgE as full-length IgG or Fab injected (1.56-25 nM or 1.56-50 nM), association 120 s, dissociation 300 s; 1:1 langmuir fit.
The target of assay [2] is recombinant macaque IgE (trastuzumab-IgE; anti-Her2-IgE) (macaque). The description is as above.
The target of assay [3] is recombinant human IgE (trastuzumab-IgE; anti-Her2-IgE) (human). Briefly: SEC-MALS; trastuzumab-IgE mixed with anti-IgE IgG at different molar ratios. Background: SEC sorts molecules by how far they enter the pores of the column.

A word on the Kd: it is the concentration at which binding is half-saturated. The term koff denotes a measure of how fast the partners let go of each other. As usually defined, the kon is the second-order rate constant of association. For Omalizumab Fab, in assay [1], the Kd worked out at 14.6 nM, the off-rate constant (koff) amounted to 0.00614 s⁻¹ and the kon came out at 420000 M⁻¹ s⁻¹. For the same substance, in assay [2], the Kd amounted to 16.1 nM, the off-rate constant (koff) is 0.00811 s⁻¹ and the on-rate constant (kon) turned out to be 504000 M⁻¹ s⁻¹.

Omalizumab full-length IgG (antibody): in assay [3], the stoichiometry N (4:4 (anti-IgE:IgE)) amounted to 4. In addition, the Kd amounted to 0.0594 nM in assay [1] and 0.0543 nM in assay [2].

(Values after article PMC13264800.)
